Source: patent US20180244795A1 (DEBIOPHARM INTERNATIONAL S A, published 2018)

Columns and labels:
Human CD37 = biological target: T1, Human CD37 (human, UniProt P11049 1-281); assay: IHC on FFPE CD37-positive samples (human tonsil, Daudi, Ramos, Namalwa cells)
T1 construct: Endogenous CD37 in formalin fixed paraffin embedded Daudi, Ramos and Namalwa cell pellets and human tonsil (IHC); also called GP52-40; tetraspanin-26
T1 sequence: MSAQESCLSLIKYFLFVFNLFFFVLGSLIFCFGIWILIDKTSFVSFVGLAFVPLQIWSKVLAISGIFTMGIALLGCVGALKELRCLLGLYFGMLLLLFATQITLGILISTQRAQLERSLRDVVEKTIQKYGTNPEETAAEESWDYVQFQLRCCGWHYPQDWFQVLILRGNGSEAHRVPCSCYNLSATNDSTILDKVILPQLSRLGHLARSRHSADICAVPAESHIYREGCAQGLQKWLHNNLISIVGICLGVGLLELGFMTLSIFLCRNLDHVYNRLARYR
Protocol: Slides were incubated with ImmunoGen, Inc. generated 1B11-2 antibody, Leica/Novocastra NCL-CD37 antibody (clone CT1) or Leica/Novocastra muIgG1 control antibody at varying concentrations for 15 minutes. Bound antibodies were detected by incubation with the Leica Bond Refine detection system. Following the application of the antibodies, slides were incubated with Post Primary Reagent (rabbit anti-mouse IgG) for 8 minutes, Polymer (goat anti-rabbit polymer) for 8 minutes, and DAB (3,3-diaminobenzidine tetrahydrochloride) for 10 minutes. […] Slides were counterstained with hematoxylin for 5 minutes.
Purified antibody from clone 1B11-2 diluted at 8.4 μg/mL, 4.2 μg/mL, and 2.1 μg/mL in Leica Antibody Diluent (Tris-buffered saline, surfactant, and protein stabilizer with 0.35% ProClin™ 950) was used to stain CD37-positive control samples (human normal tonsil, Daudi cells, Ramos cells, and Namalwa cells). The antibody was evaluated for CD37 specificity as measured by acceptable membrane staining and specificity in CD37-positive samples. This clone was also compared with the NCL-CD37 mouse mAb (clone CT1) diluted to 4.2 μg/mL in Leica Antibody Diluent using the same CD37 positive human tissue and cells. […] A suitable staining concentration of 4.2 μg/mL was experimentally determined for 1B11-2.

[1] = biological target: T2, hCD37-ECD-S2-Fc (amino acids 107 to 109 and 138 to 235 of human CD37 fused to murine IgG2a Fc-domain) (human); assay: ELISA, native hCD37-ECD-S2-Fc coated on the plate, purified antibody titrated
T2 construct: Produced in HEK-293T cells; It lacks the S1 segment (amino acids 110-137) of the CD37 large extracellular domain; also called truncated hCD37-ECD-S2-Fc protein
T2 chain: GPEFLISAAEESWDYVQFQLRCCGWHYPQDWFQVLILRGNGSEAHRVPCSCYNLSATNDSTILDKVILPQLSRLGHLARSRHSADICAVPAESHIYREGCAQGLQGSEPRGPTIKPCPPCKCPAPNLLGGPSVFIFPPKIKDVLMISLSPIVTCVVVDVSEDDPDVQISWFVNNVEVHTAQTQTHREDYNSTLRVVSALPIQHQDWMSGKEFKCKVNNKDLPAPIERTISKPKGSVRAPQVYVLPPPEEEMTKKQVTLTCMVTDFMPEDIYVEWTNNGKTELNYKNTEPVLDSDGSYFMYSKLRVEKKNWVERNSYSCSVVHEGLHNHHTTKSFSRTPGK
Protocol: (§1) Antibody from 1B11-2 was purified using standard protein-A chromatography. An anti-CD37 antibody sold by Leica Biosystems (product code NCL-CD37) was used for comparison. The binding of the anti-CD37 antibodies was examined by ELISA with recombinant CD37 proteins used as the antigen. Each recombinant protein was immobilized at approximately 25-100 ng/well on microtiter plates in Sodium bicarbonate coating buffer (Sigma-Aldrich) using either native or denatured conditions as described above. Plates were washed once with PBS supplemented with 0.05% Tween-20 and blocked with PBS supplemented with 1% bovine serum albumin (BSA). Plates were washed three times with PBS supplemented with 0.05% Tween-20 and purified antibodies were added to the plates. Plates were incubated for one hour at room temperature, washed three times as above, and incubated with HRP-labeled goat anti-murine secondary antibody (Jackson ImmunoResearch, diluted at 1:5,000) for one hour at room temperature. The plates were washed three times as above, and bound HRP-conjugated antibody was detected by adding the HRP-substrate TMB (Bio-FX). Plates were incubated for approximately 10 minutes, and then color development was stopped with stop solution (Bio-FX). Absorbance at 450 nm was measured for each plate in a multiplate reader. Representative results are shown in FIG. 2 for binding to native hCD37-Fc-LAGA and hCD37-LEL. […]

[2] = biological target: T3, hCD37-Fc-LAGA (amino acids 107 to 235 of human CD37 fused to human IgG1 Fc-domain) (human); assay: ELISA, native hCD37-Fc-LAGA coated on the plate, purified antibody titrated (left panel)
T3 construct: Produced in HEK-293T cells
Protocol: as §1

[3] = biological target: T4, hCD37-ECD-Fc (amino acids 107 to 235 of human CD37 fused to murine IgG2a Fc-domain) (human); assay: Western blot after denaturing, reducing SDS PAGE (Gel C), primary 1B11-2, secondary anti-mouse F(ab)2-HRP
T4 construct: Produced in HEK-293T cells
T4 chain: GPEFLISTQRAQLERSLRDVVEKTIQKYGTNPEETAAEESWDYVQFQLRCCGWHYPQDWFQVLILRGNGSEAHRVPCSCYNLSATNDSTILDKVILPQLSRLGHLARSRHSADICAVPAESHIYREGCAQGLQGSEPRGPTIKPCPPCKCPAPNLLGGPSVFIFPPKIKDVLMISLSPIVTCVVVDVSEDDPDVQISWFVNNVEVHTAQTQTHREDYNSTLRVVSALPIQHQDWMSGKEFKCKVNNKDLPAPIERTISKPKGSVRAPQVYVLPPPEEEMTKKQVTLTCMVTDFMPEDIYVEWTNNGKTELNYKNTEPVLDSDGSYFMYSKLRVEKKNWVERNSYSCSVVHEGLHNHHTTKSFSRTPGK
Protocol: The ability to recognize different preparations of Fc-fused CD37-ECDs was tested in denaturing SDS PAGE followed by Western blotting for 1B11-2 (left panel), in direct comparison with a commercially available anti-CD37 antibody (Leica; right panel). Fc-fused CD37-ECD preparations were denatured by incubation in Laemmli buffer containing 70mM β-mercapto-ethanol at 100° C. for 10 min, and were separated by SDS polyacrylamide gel electrophoresis, followed by electrophoretic transfer to PVDF membranes. Membranes were blocked with 5% non-fat milk in Tris-buffered saline with 0.1% Tween-20 (TBST) for 1 hour at room temperature. Primary antibodies were applied overnight, followed by detection with secondary anti-mouse F(ab)₂ conjugated to horse radish peroxidase for 1 h at room temperature. Blots were developed using enhanced chemiluminescence detection following standard procedures. While the Leica antibody recognizes all three Fc-CD37 ECD preparations, the 1B11-2 antibody of the invention recognizes only hCD37-ECD-Fc and hCD37-Fc-LAGA, but not hCD37-ECD-S2-Fc. The hCD37-ECD-S2-Fc construct is missing the S1 segment (amino acids 110-137) of the CD37 ECD. Thus, a region of amino acids 110-137 is critical for epitope recognition by 1B11-2, but not by the Leica antibody.

B1: muCD37-1B11-2 mouse monoclonal anti-human CD37 antibody (antibody, mouse IgG1, kappa, V domains shown)
VH: EVQLLQSGPELVKPGASVKISCKASGYSFTGYFMNWVIQSHGKGLEWIGRINPYNGDTFYNQKFKGKATLTVDKSSTTAHMELLSLTSEDSAVYYCGSRGIVASSRFFDVWGAGTSVIVSS
VL: SIVMTQTPKFLLVSAGDRVTITCKASQGVSNDVDWYQQKPGQSPKLLIYYASNRYTGVPDRFTGSGYGTDFTFSISTVQAEDLAVYFCHQDYTSPTFGGGTKLEIKR
notes: Murine IgG1/kappa from hybridoma; also called antibody 1B11-2; CD37 1B11-2 Mouse mAb
In the case of B1, the binding result (Human CD37) is reported as “binds”, the binding result [1] is reported as “no binding (tested: 1e-7 M)” and the “EC50 (read off the curve)” value [2] is reported as roughly 100 pM. B1: binds [3].
